The target of the series is Carcinoembryonic antigen (CEA) (UniProt P06731 35-685). Briefly: electrochemical aptasensor (CV, DPV); immobilized aptamer; current falls with CEA; LOD 7.6 ng/mL (not a Kd); 0.05 M PBS pH 7.0, 0.1 M KCl, 5 mM [Fe(CN)6]3-/4-; temperature not stated.

The values that follow come from PMC12921616, “Flower-like Silver Bismuth Sulfide/Carbon Nanosphere Nanocomposite for Sensitive Electrochemical Tumor Marker Sensing”.

Chain of Carcinoembryonic antigen (CEA) (P06731 35-685): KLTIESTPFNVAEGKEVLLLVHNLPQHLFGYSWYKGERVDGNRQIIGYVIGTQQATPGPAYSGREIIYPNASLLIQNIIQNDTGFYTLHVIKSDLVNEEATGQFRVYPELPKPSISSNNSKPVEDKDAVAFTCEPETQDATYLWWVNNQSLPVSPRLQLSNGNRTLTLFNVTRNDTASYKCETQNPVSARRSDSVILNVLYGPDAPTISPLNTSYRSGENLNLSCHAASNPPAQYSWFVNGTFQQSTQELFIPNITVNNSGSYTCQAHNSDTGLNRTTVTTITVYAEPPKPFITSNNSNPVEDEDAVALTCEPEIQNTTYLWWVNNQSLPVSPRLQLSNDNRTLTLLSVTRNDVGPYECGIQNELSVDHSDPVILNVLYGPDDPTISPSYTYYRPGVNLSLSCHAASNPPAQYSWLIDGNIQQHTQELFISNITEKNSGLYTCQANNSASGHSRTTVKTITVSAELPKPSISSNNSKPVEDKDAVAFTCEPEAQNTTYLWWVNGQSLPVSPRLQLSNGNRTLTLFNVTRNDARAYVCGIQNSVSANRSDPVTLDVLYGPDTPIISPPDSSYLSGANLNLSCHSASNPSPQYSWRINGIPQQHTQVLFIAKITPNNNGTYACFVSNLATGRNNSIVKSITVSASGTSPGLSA

B1: CEA aptamer (ssDNA)
DNA: GTGACGCTCCTAACGCTGACTCAGGTGCAGTTCTCGACTCGGTCTTGATGTGGGTCCTGTCCGTCCGAACCAATC
modifications: 5'-NH2
Regarding B1, the binding result is reported as “binds”.
